From patent publication US9217032B2, “Methods for treating colorectal cancer” (LES LABORATOIRES SERVIER, priority 2010, dated 2015)

B1: MAb4: murine N-terminal anti-hPG monoclonal antibody, hybridoma 20D2C3G2, VH SEQ ID NO:14, VL SEQ ID NO:15 (antibody, V domains shown)
VH: QVQLQQSGAELMKPGASVKISCKATGYTFSSSWIEWLKQRPGHGLEWIGEFLPGSGSTDYNEKFKGKATFTADTSSDTAYMLLSSLTSEDSAVYYCATDGNYDWFAYWGQGTLVTVSA
VL: DLVMTQTPLSLPVSLGDQASISCRSSQSLVHSSGVTYLHWYLQKPGQSPKLLIYKVSNRFSGVPDRFSGSGSGTDFTLKISRVEAEDLGVYFCSQSTHVPPTFGSGTKLEIK
B2: MAb3: murine N-terminal anti-hPG monoclonal antibody, hybridoma 6B5B11C10, VH SEQ ID NO:12, VL SEQ ID NO:13 (antibody, V domains shown)
VH: EVQLQQSGTVLARPGASVKMSCKASGYIFTSYWVHWVKQRPGQGLEWIGGFYPGNSDSRYNQKFKGKATLTAVTSASTAYMDLSSLTNEDSAVYFCTRRDSPQYWGQGTTLTVSS
VL: DVLMTQTPLSLPVSLGDQASISCRSSQSIVHSNGNTYLEWYLQKPGQSPKLLIYKVSNRFSGVPDRFSGSGSGTDFTLKISRLEAEDLGVYYCFQGSHVPFTFGGGTKLEIK
B3: MAb8: murine C-terminal anti-hPG monoclonal antibody, hybridoma 1C10D3B9, VH SEQ ID NO:59, VL SEQ ID NO:63 (antibody, V domains shown)
VH: EVQLVESGGGLVKPGGSLKLSCAASGFTFTTYAMSWVRQTPEKRLEWVATISSGGTYTYYPDSVKGRFTISRDNAKNALYLQMSSLRSEDTAMYYCATQGNYSLDFWGQGTSLTVSS
VL: DIVMTQAASSNPVTLGTSASISCRSSKSLRHTKGITFLYWYLQKPGQSPQLLIYQMSNLASGVPDRFSSSGSGTDFTLRISRVEAEDLGVYYCAQNLELPLTFGAGTKLELK

Columns and labels:
[1] = tested on: SW620 metastatic colorectal cancer cells; assay: Growth of SW620 cells in culture, monoclonal antibodies; assay type: cell-based, human; settings: for reduction of growth of SW620 cells compared to control antibody: MAb1-MAb4, 48 hours; for Cell numbers: SW620, 48 hours, treated every 12 hours, average cells per well minus cells seeded (T0), CT antibody-T0 158556
Protocol: (§1) SW620 cells were seeded into 6-well plates, serum-starved overnight, then treated every 12 hours with PBS, 3 microgram/ml control antibody (Mouse anti-human IgG1, Calbiochem, Ref #411451) or four different anti-PG monoclonal antibodies, MAb3, MAb4, MAb2, and MAb1. The experiment was carried out in duplicate, and the technician was blinded as to the contents of the treatment solutions. Forty-eight hours after the start of the treatments the number of surviving cells in each well were counted six times and averaged.
In a separate experiment, SW620 cells were seeded into 6-well plates (100,000 cells per well) and treated similarly above with 5 μg/ml of anti-hPG monoclonal antibodies 5-23 (i.e., MAb5-MAb23) or 5 μg/ml control antibody. After 48 hours the number of viable cells were counted from which the number of cells at the beginning of the experiment (i.e., T0) were subtracted. The number of surviving cells in the specific antibody treated wells was then expressed as a percentage of the control.

SW620 cells = assay: Hepatic metastases by SW620 cell xenografts in nude mice, monoclonal antibody; assay type: in vivo, BALBc/nude mice
Protocol: A total of 5×10^6 SW620 cells were injected into the spleen of each of 20 BALBc/nude mice at age 5 weeks old. Two minutes after injection of the cells, the spleens were surgically removed. After recovery, mice were randomly divided into two groups, each of which was subjected to one of two different treatments. Specifically, 10 mice were injected with a control antibody (anti-human IgG1Fc) diluted in PBS, and 10 mice were injected with anti-hPG monoclonal antibody MAb3, also diluted in PBS. The dose of antibodies was 8 mg/kg in a volume of 150 microliters. Injections were made intraperitoneally twice per week for six weeks. Once per week each mouse was weighed. Six weeks later, after the course of injections was finished, the mice were euthanized with carbon dioxide and the livers were removed and the number of visible metastases present was counted.

[2] = tested on: SW620 metastatic colorectal cancer cells; assay: Pre-treatment of SW620 cells: ALDH1 positive cells (ALDEFLUOR); assay type: cell-based, human; settings: pre-treatment 72 hours, 1 μg/ml, FIG. 25
Protocol: (§2) Cells tested were from the metastatic colorectal cancer cell lines T84 and SW620. Cells were first grown in conventional adherent cultureware for 72 hours in the presence of the anti-progastrin monoclonal antibody MAb3 (1 μg/ml), a control monoclonal antibody, the chemotherapeutic agent 5-fluorouracil (5FU 10 μM), or the solvent dimethylsulfoxide (DMSO). After treatment, cells were subjected to two assays. In the first, the percentage of cells positive for the cancer stem cell marker ALDH1 were determined using an ALDEFLUOR kit (Stemcell Technologies). In the second assay, for each treatment group, cells were plated into six wells of low adherence 96 well-plates at a density of 500 cells per well in 100 μl of serum-free medium containing bFGF and EGF and grown for 11 days without further treatment. After the end of this period, the number of spheroids per well was then counted.

[3] = tested on: SW620 colorectal cancer cells; assay: Cells isolated from SW620 metastases of treated nude mice: cell count and spheroid growth; assay type: in vivo, BALBc/nude mice
Protocol: (§3) Using standard techniques, immunodeficient BALBc/nude mice were given intra-splenic injections of human metastatic SW620 colorectal cancer cells. The mice were then administered the anti-hPG monoclonal antibody MAb3 or a control monoclonal antibody twice per week for a total of six weeks. For each antibody, the dose was 8 mg/kg. At the end of the treatment period tissue was dissected from metastases from both treated and control mice. Tumor cells were disaggregated by treatment of the dissected tissue with Accumax, filtered and counted. A total of 23,800 viable tumor cells were obtained from metastatic tissue from the mice treated with MAb3, and 36,400 were obtained from control mice.
(§4) For the spheroid test, for each of the treated and control cells, 2,000 cells/well were seeded into five wells of low adherence cultureware in M11 medium supplemented with bFGF and EGF. Cells were grown for seven days, and then the number of spheroids that formed in each well was counted. For the transplantation test, spheroids developing from cells isolated from treated and control metastases were pooled, disaggregated and counted. A total of 20,000 cells were obtained from spheroids derived from treated metastases, and 110,000 cells were obtained from spheroids derived from control metastases. […] Tumor volume was then calculated through time in both animals.

[4] = tested on: T84 metastatic colorectal cancer cells; assay: Pre-treatment of T84 cells: ALDH1 positive cells (ALDEFLUOR); assay type: cell-based, human; settings: pre-treatment 72 hours, 1 μg/ml, FIG. 24
Protocol: as §2

[5] = tested on: T84 metastatic colorectal cancer cells; assay: Growth of T84 cells in culture; assay type: cell-based, human; settings: FIG. 7; P value 0.0370 Mann Whitney
Protocol: as §1
The methods employed for this experiment were similar to those used to measure the effect of anti-progastrin monoclonal antibodies on SW620 cells, except that the anti-progastrin antibody used was anti-hPG MAb3.

[6] = tested on: SW620 colorectal cancer cells; assay: Initiation of new tumors after transplantation of cells from treated metastases; assay type: in vivo, BALBc/nude mice; settings: 6,500 cells subcutaneously into thighs of two nude mice; tumor volume; FIG. 29
Protocol: as §3, §4

[7] = tested on: CRC1 primary colorectal cancer cells; assay: Pre-treatment of CRC1 cells: ALDH1 expressing cells by FACS; assay type: cell-based, human; settings: 72 hours in conventional adherent culture; FIG. 22
Protocol: (§5) CRC1 cells were obtained from a human colon carcinoma biopsy according to standard procedures. After being dissociated in Accumax (Sigma) for 45 minutes at 37° C., CRC1 cells (100,000 cells/well) were grown under conventional adherent culture conditions in serum free DMEM medium for 72 hours in the presence or absence of anti-hPG monoclonal antibodies MAb5, MAb8, MAb13 or MAb16. Experiments were carried out in blinded fashion. At the end of the treatment period, two different assays were performed on the cells. First, the percentage of cells expressing ALDH1, a marker of colorectal cancer stem cells, was determined by FACS. In the second assay, for each treatment group, 200 cells/well were plated in six wells of a low adherence 24-well plate in 500 μl of serum-free M11 medium supplemented with bFGF and EGF, and grown for 7 days without further treatment. At the end of this period, photographs were taken and the number of spheres per well was counted, and sphere surface area measured.

[8] = tested on: CRC1 primary colorectal cancer cells; assay: Spheroid formation by CRC1 cells in low adherence culture, monoclonal antibodies; assay type: cell-based, human; settings: CRC1, 3 μg/ml; p<0.05 one-way ANOVA with Bonferroni; FIG. 20
Protocol: CRC1 cells were obtained from a human colon carcinoma biopsy according to standard procedures. After being dissociated in Accumax (Sigma) for 45 minutes at 37° C., cells were plated in low adherence 96 well-plates (Corning) at a density of 100 cells per well in M11 medium (DMEM/F12 with 20 ng/ml EGF, 10 ng/ml FGF, 20 μg/ml insulin, N2 supplement, 2 μg/ml cyproflaxin, 5 μg/ml gentamycin and 3 mg/ml glucose). For each treatment arm, 10 wells were used. Starting on the first day, cells were treated twice daily with one of four different anti-progastrin monoclonal antibodies, MAb5, MAb8, MAb13 or MAb16 (3 μg/ml) or the same concentration of monoclonal antibody P3X63Ag8 (ATCC, Ref TIB-9) or medium with no antibody added as controls. Thereafter, treatment was performed once daily for 8 days. Spheres were photographed daily for subsequent counting. All experiments were carried out in blinded fashion. After the conclusion of the experiment, the number of spheres from each treatment art was counted.

[9] = tested on: CRC1 primary colorectal cancer cells; assay: Pre-treatment of CRC1 cells: spheroids in low adherence culture; assay type: cell-based, human; settings: 72 hours pre-treatment, then 7 days low adherence without antibody, FIG. 23, MAb5, MAb8, MAb16 p<0.05
Protocol: as §5

| Molecule | reduction of growth of SW620 cells compared to control antibody [1] | Cell numbers [1] | mean weight of liver metastases (SW620 cells; 8 mg/kg i.p. twice per week, six weeks, control mice 167 mg, not statistically significant) | decrease of mean number of metastases versus control antibody (SW620 cells; 8 mg/kg i.p. twice per week, six weeks, p=0.0372) | mean number of metastases (SW620 cells; 8 mg/kg intraperitoneally twice per week for six weeks, control antibody 7.3) | number of ALDH1 positive cells compared to control antibody [2] | viable tumor cells obtained from metastatic tissue ([3]; 8 mg/kg twice per week for six weeks, control mice 36,400) | growth as spheroids of cells isolated from in vivo metastases ([3]; mice treated 8 mg/kg twice per week six weeks, 2,000 cells/well, seven days, FIG. 28) | number of ALDH1 positive cells compared to control antibody [4] | reduction of growth of T84 cells compared to control antibody [5] | ability to initiate new tumor growth after transplantation [6] | number of CRC1 cells expressing ALDH1 compared to control [7] | number of spheroids formed compared to non-specific antibody and medium alone [8] | number of spheroids formed after pre-treatment compared to control [9] |
| --- | --- | --- | --- | --- | --- | --- | --- | --- | --- | --- | --- | --- | --- | --- |
| B1 | more effective than the others | 52984 |  |  |  |  |  |  |  |  |  |  |  |  |
| B2 | more effective than the others | 50056 | 96 mg | 41% | 4.3 | reduced | 23,800 | reduced | reduced | effective to reduce the growth of T84 metastatic colorectal cancer cells | reduced |  |  |  |
| B3 |  |  |  |  |  |  |  |  |  |  |  | reduce the number CRC1 primary colorectal cancer cells expressing ALDH1 | effective to reduce the number spheroids | effective to reduce the number of spheroids |
